Measured values reported in PMC11046469, “Leveraging a Phage-Encoded Noncanonical Amino Acid: A Novel Pathway to Potent and Selective Epigenetic Reader Protein Inhibitors” (ACS Central Science, 2024).

What follows are substances tested against T1, ENL YEATS domain (AviSUMO-ENL YEATS) (Homo sapiens, UniProt Q03111) (assay: Phage panning of BuK-containing 7-mer library against AviSUMO-ENL YEATS with Illumina NGS abundance). Details: sheet ENLR3: round 3 of panning against ENL YEATS; TAG = amber codon (BuK); 7-mer library positions V1-V7.
T1 construct: encoding ENL YEATS (aa 1−148) was cloned in pET28a-; made in house; host or cells: E. coli BL21(DE3pLysS), co-expressed with BirA (pBirAcm)
T1 sequence (Q03111 1-148): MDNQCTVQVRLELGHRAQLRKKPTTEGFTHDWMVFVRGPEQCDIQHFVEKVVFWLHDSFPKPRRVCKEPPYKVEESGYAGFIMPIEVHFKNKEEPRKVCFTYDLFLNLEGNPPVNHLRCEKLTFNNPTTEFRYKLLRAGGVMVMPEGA
Method in brief: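 Phage displaying BuK-containing amber-obligate 7-mer peptides, made with 5 mM BuK, was panned against biotinylated AviSUMO-ENL YEATS on streptavidin beads with washes of rising stringency. Rounds 1 and 3 were sequenced by Illumina NGS, and sequences with mismatches were filtered out before copy-number abundance was counted.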

n (number of NGS reads of the unique amino acid sequence)	percent (share of sequence reads) [%]	Substance
4	0.003642	WWVIETAGG
51	0.04644	YDFYCYTAG
1	0.0009106	CHNWICTAG
2	0.001821	LAYCTAGHN
38	0.0346	YYVYCYTAG
1	0.0009106	HSIYCYTAG
5	0.004553	SWIIETAGG
1	0.0009106	CWGFEKTAG
2	0.001821	CCWTAGGGN
13	0.01184	QCGTRTAGD
6	0.005464	TAGWIIETAGG
1	0.0009106	DLVYCYTAG
3	0.002732	HLTLFYG
2	0.001821	SQCTAGECA
612	0.5573	HYVLFTAGG
1	0.0009106	CFFTAGIMC
2	0.001821	TAGVMSLYS

The remaining lines, values behind:

Substance	n (number of NGS reads of the unique amino acid sequence)	percent (share of sequence reads) [%]
LFIALPTAG	1	0.0009106
HCVLFTAGG	1	0.0009106
HTRSMTAGN	1	0.0009106
YDDYCYTAG	2	0.001821
KCGPRTAGD	9	0.008196
YDVYCCTAG	5	0.004553
ATAGSFHYL	1	0.0009106
DDVYCYTAG	7	0.006374
QFGPRTAGD	6	0.005464
SWILWTAGG	8	0.007285
WWIIETAGR	6	0.005464
WWIIEQG	2	0.001821
MFTAGITDN	1	0.0009106
TAGTVTFWY	3	0.002732
KVTAGGGGV	1	0.0009106
YDVYSYTAG	3	0.002732
WCGPRTAGD	2	0.001821
HVIYCYTAG	2	0.001821
YDLYCYTAG	3	0.002732
WNCLYTAGD	4	0.003642
NAIYCYTAG	1	0.0009106
HLTLFTAGV	4	0.003642

Same assay, conditions: sheet ENLR3: round 3 of selection against ENL YEATS; TAG = amber codon (BuK)

n (number of NGS reads of the 7-mer sequence V1-V7)	percent (share of NGS reads of the 7-mer sequence V1-V7) [%]	Substance
1	0.0009106	NTITAGISL
1	0.0009106	TAGGSWVPI
1	0.0009106	VATAGMWPC
1	0.0009106	TAGTYYVCR
1	0.0009106	SLYITFTAG
1	0.0009106	QCSPRTAGD

Second part, the substance before the results:

Substance	n (number of NGS reads of the 7-mer sequence V1-V7)	percent (share of NGS reads of the 7-mer sequence V1-V7) [%]
TAGCGPRYD	1	0.0009106
TAGDVYCYTAG	1	0.0009106
QCGPRTAGV	1	0.0009106
WWIFETAGG	1	0.0009106
WWITETAGG	1	0.0009106
STTAGKLFI	1	0.0009106
NLTLFTAGG	1	0.0009106
QCGPRQD	1	0.0009106
YPCVCFTAG	1	0.0009106
YRWVFSF	1	0.0009106
YLDDTAGLH	1	0.0009106
